Laboratory results: the supplement of paper PMC10899765

How the values were obtained:
Conditions in all cases: 20 nM; 72 h
MCF10A [1] = assay: percent viability (nuclei count relative to siNT); higher = more viable cells
Protocol: (§1)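 After 72 h, cells were fixed and stained with Hoechst and anti-fibrillarin, and nucleoli per nucleus were counted with CellProfiler. Values are plate-adjusted percent effect for the one-nucleolus and 5+ nucleoli phenotypes, normalised to siNT (0%) and to the positive controls siNOL11 or siKIF11 (100%), as the mean of biological triplicates. Percent viability is the nuclei count relative to siNT.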

MCF10A [2] = assay: 5+ nucleoli phenotype percent effect (relative to siNT 0% and siKIF11 100%); higher = more cells with five or more nucleoli
Protocol: as §1

MCF10A [3] = assay: one-nucleolus phenotype percent effect (relative to siNT 0% and siNOL11 100%); higher = more cells with one nucleolus (ribosome biogenesis inhibition)
Protocol: as §1

| Sequence | percent viability (MCF10A [1]) | 5+ nucleoli phenotype percent effect (MCF10A [2]) | one-nucleolus phenotype percent effect (MCF10A [3]) |
| --- | --- | --- | --- |
| AGGUUGUCUGUGAUGAGUUCG [hsa-miR-410-5p] | 39.7% | 75.2% | -12.5% |
| AGGGCCCCCCCUCAAUCCUGU [hsa-miR-296-5p] | 49.5% | 11.6% | 2.62% |
| UGUAGAGCAGGGAGCAGGAAGCU [hsa-miR-4732-5p] | 23.8% | -0.0062% | 6.48% |
| AGAGAUGAAGCGGGGGGGCG [hsa-miR-6088] | 91.6% | 6.48% | -6.8% |
| UCCGAACUCUCCAUUCCUCUGC [hsa-miR-6716-3p] | 166% | 35.3% | -19.3% |
| CCACUUGGAUCUGAAGGCUGCCC [hsa-miR-3614-5p] | 32.9% | -32.4% | 36.9% |
| AGGGACUUUCAGGGGCAGCUGU [hsa-miR-365b-5p] | 36.2% | 19.9% | 4.45% |
| CAGCCAGCCCCUGCUCACCCCU [hsa-miR-6858-3p] | 30.6% | 3.04% | 16.5% |
| AGAUUGUUUCUUUUGCCGUGCA [hsa-miR-4445-5p] | 19.2% | -21.9% | 34.7% |
| GAAGGCGCUUCCCUUUAGAGCG [hsa-miR-525-3p] | 42.5% | -16.5% | 37.2% |
| CAUCAGCACCCUAUGUCCUUUCU [hsa-miR-3617-3p] | 20% | -20.3% | 29.5% |
| UUUCCUCAUAUUCAUUCAGGA [hsa-miR-670-3p] | 46.6% | -7.45% | 4.99% |
| UCAGUCACAUAUCUAGUGUCUA [hsa-miR-4704-3p] | 54.4% | 10.1% | 5.92% |
| UUUUUCAUUAUUGCUCCUGACC [hsa-miR-335-3p] | 157% | 26.8% | -20.3% |
| ACCCUUGAGCCUGAUCCCUAGC [hsa-miR-4780] | 99.8% | 4% | -13.2% |
| UGGCAGGGAGGCUGGGAGGGG [hsa-miR-1207-5p] | 24.4% | -30.5% | 24.5% |
| UCUUACUCCCUCAGGCACUG [hsa-miR-550b-3p] | 31% | -5.7% | 1.54% |
| UCACCUGGCUGGCCCGCCCAG [hsa-miR-6765-3p] | 63.1% | 30.1% | -20.5% |
| AAGUGCUUCCUUUUAGAGGGUU [hsa-miR-520f] | 46.9% | 26.9% | 4.79% |
| UAAUCUCAGCUGGCAACUGUGA [hsa-miR-216a-5p] | 67.7% | -8.01% | 6.23% |

| Sequence | percent viability (MCF10A [1]) | 5+ nucleoli phenotype percent effect (MCF10A [2]) | one-nucleolus phenotype percent effect (MCF10A [3]) |
| --- | --- | --- | --- |
| AGGCUGUGAUGCUCUCCUGAGCCC [hsa-miR-7974] | 22.8% | -12% | 30.5% |
| CAGGACUUGACGGCUGCAACU [hsa-miR-8083] | 71% | 22.5% | -1.33% |
| AGGGGCUGGCUUUCCUCUGGUC [hsa-miR-185-3p] | 22.6% | -3.46% | 49.9% |
| UCUGCCAUAGGAAGCUUGGAGUGG [hsa-miR-6817-5p] | 65.4% | 1.17% | -25% |
| UGUAAACAUCCUACACUCAGCU [hsa-miR-30b-5p] | 93% | 34.3% | -9.57% |
| UGGUGGGUGGGGAGGAGAAGUGC [hsa-miR-6769b-5p] | 18.8% | -22.4% | 23.2% |
| AACUCACGAAGUAUACCGAAGU [hsa-miR-4798-3p] | 48.2% | 11.4% | -1.81% |
| GCCGGACAAGAGGGAGG [hsa-miR-4442] | 96% | 25.4% | -19.9% |
| CUACCCCCCAUCCCCCUGUAG [hsa-miR-6798-3p] | 72.5% | -13.9% | -5.24% |
| ACUGGACUUGGAGCCAGAAG [hsa-miR-378f] | 45.3% | 33.7% | -12.4% |
| CAUGCCUUGAGUGUAGGACCGU [hsa-miR-532-5p] | 19.5% | -20.1% | 19.3% |
| UUCAUGAACUGGGUCUAGCUUGG [hsa-miR-7154-5p] | 60.8% | -0.807% | -15.2% |
| UGGGAGAGAGGACUGUGAGGC [hsa-miR-8085] | 12.6% | -1.75% | 21.4% |
| CACACAGGAAAAGCGGGGCCCUG [hsa-miR-6768-5p] | 55.7% | 24.4% | -20.7% |
| UGAGGUGGUAGGAUGUAGA [hsa-miR-6134] | 12% | -36% | 40.7% |
| GACUCACUCACAGGAUUGUGCA [hsa-miR-3680-5p] | 58.9% | 39.7% | -12% |
| UGUGACUUCUCCCCUGCCACAG [hsa-miR-6820-3p] | 32.3% | -7.76% | 22.3% |
| UUUUCAACUCUAAUGGGAGAGA [hsa-miR-1305] | 72.2% | -6.71% | 9.11% |
| CUUGGGAGCCCUGUUAGACUC [hsa-miR-887-5p] | 176% | 76% | -32.3% |
| AAACCUGUGUUGUUCAAGAGUC [hsa-miR-649] | 113% | 34.7% | -16.6% |

| Sequence | percent viability (MCF10A [1]) | 5+ nucleoli phenotype percent effect (MCF10A [2]) | one-nucleolus phenotype percent effect (MCF10A [3]) |
| --- | --- | --- | --- |
| UUGGCCAUGGGGCUGCGCGG [hsa-miR-3187-3p] | 30.1% | 12.9% | -2.01% |
| GACUGGACAAGCUGAGGAA [hsa-miR-3654] | 99.2% | 68.1% | -25.9% |
| CCUGACACCCCAUCUGCCCUCA [hsa-miR-6730-3p] | 61.8% | -26.1% | 26.8% |
| ACACUGUCCCCUUCUCCCCAG [hsa-miR-6760-3p] | 92.8% | 56.3% | -27.2% |
| CACUAGAUUGUGAGCUCCUGGA [hsa-miR-28-3p] | 92.2% | 12.4% | -9.21% |
| UCUGUGCUUCACCCCUACCCAG [hsa-miR-6737-3p] | 68.8% | -3.33% | 3.19% |
| GCUGCGCUUGGAUUUCGUCCCC [hsa-miR-191-3p] | 71% | 5.48% | 5.27% |
| GCUGGGCAGGGCUUCUGAGCUCCUU [hsa-miR-612] | 77.6% | -7.01% | 14.9% |
| GUUUAACCUUUUGCCUGUUGG [hsa-miR-552-5p] | 98.1% | 32% | -29.8% |
| AGUGGCACAUGUUUGUUGUGAG [hsa-miR-891a-3p] | 32.1% | -11.2% | 35% |
| UGAUUGGUACGUCUGUGGGUAG [hsa-miR-509-3p] | 37.8% | -46.5% | 34% |
| GAGGCAGAAGCAGGAUGACA [hsa-miR-1910-3p] | 38.6% | -17.5% | 25.3% |
| CAGUGCAAUGAUGAAAGGGCAU [hsa-miR-130b-3p] | 77% | 59.9% | -14.8% |
| UCCGUACAAACUCUGCUGUG [hsa-miR-3678-5p] | 64.4% | -49.2% | 39.4% |
| UCUUUGGUUAUCUAGCUGUAUGA [hsa-miR-9-5p] | 54.9% | -15.1% | 20.5% |
| AAAAGCUGGGCUGAGAGGCG [hsa-miR-4429] | 38.6% | -19.2% | 24.9% |
| AGGGGACUGGUUAAUAGAACUA [hsa-miR-4652-5p] | 14.5% | -5.22% | 47.2% |
| CCCAGCAGGACGGGAGCG [hsa-miR-4530] | 111% | 43.3% | -26.2% |
| ACUGGGGGCUUUCGGGCUCUGCGU [hsa-miR-637] | 22.7% | -19.4% | 50.5% |
